# Laboratory results published in US20110223165A1 (Amgen, published 2011).
# Columns and labels:
# [1] = target: T1, human membrane c-Kit on cells (human, UniProt P10721 26-976); assay: cell-based or functional assay
# [2] = target: c-Kit (form in the assay not stated) (UniProt P10721 26-520, limits assumed); assay: Biacore assay, blocking of SCF binding to c-Kit; Biacore; blocking of SCF binding; c-Kit form not stated
# [3] = target: T2, recombinant c-Kit receptor-Fc (UniProt P10721 26-520, limits assumed); assay: KinExA equilibrium binding; KinExA equilibrium binding; recombinant c-Kit receptor-Fc
# T2 construct: not shown: Fc part
# [4] = target: T3, Fcγ receptor I (CD64) on U-937 cells (UniProt P12314 16-374, limits assumed); assay: binding to U-937 cells
# T3 construct: whole, on cells; also called FcγRI
# [5] = target: T1, human membrane c-Kit on cells; assay: cell-based or functional assay; remark: listed apart in the source
# T1 sequence (P10721 26-976): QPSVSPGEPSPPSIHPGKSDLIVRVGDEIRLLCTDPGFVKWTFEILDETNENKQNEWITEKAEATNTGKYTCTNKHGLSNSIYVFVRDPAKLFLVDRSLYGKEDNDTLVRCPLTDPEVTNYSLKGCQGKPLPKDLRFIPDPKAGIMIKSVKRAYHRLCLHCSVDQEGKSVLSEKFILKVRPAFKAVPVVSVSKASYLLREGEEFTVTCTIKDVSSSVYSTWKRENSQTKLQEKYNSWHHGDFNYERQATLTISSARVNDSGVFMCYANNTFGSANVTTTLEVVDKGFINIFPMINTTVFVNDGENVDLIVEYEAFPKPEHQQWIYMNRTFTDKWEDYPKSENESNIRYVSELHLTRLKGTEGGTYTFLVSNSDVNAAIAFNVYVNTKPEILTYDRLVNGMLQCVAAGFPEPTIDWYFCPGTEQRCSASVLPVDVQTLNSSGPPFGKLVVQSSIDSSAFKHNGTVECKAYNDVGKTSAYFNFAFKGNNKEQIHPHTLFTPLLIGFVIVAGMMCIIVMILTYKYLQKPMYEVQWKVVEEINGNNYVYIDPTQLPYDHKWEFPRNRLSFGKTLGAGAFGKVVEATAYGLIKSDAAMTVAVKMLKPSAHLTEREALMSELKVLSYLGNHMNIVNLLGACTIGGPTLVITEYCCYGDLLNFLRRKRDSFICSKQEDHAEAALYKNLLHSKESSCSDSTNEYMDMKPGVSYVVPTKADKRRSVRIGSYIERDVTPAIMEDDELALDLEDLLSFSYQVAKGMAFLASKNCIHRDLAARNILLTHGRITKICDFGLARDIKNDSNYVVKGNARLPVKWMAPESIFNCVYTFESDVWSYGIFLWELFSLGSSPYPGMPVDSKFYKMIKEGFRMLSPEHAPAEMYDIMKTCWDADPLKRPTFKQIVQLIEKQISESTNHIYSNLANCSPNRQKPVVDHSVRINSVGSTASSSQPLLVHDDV
# T2 sequence (P10721 26-520 limits assumed): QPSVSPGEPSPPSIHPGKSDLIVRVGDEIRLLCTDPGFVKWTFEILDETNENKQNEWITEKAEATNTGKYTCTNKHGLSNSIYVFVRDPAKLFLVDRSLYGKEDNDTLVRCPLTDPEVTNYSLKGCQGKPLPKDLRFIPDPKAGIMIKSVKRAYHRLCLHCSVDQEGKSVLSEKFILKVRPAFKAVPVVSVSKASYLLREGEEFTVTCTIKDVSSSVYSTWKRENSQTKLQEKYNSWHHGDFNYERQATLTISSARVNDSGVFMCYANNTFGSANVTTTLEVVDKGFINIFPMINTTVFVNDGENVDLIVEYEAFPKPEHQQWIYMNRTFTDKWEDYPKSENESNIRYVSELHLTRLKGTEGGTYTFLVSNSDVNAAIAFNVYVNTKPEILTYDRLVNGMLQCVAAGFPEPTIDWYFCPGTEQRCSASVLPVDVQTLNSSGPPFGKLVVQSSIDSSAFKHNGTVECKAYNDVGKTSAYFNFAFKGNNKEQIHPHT
# Chain of c-Kit (form in the assay not stated) (P10721 26-520 limits assumed): as above
# T3 sequence (P12314 16-374 limits assumed): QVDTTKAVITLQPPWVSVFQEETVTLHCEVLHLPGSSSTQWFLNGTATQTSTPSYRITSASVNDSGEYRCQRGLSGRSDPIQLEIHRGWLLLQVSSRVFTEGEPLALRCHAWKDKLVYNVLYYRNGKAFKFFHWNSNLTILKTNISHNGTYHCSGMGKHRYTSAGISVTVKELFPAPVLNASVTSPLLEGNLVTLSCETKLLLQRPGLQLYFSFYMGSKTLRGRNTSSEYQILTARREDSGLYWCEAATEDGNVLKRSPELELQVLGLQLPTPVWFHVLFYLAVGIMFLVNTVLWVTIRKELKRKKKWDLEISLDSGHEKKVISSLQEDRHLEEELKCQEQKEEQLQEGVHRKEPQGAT
Binder,UT-7 IC50 [1] [ng/mL],Ki [2] [pM],Kd [3] [pM],binding result [4],"IC50, SCF-dependent survival/proliferation of UT-7 cells [5] [pM]"
"murine anti-human c-Kit monoclonal antibody SR-1 (antibody, mouse IgG2a, kappa, V domains shown) VH: QVQLQQPGAELVKPGASVKMSCKASGYTFTSYNMHWVKQTPGQGLEWIGVIYSGNGDTSYNQKFKGKATLTADKSSSTAYMQINSLTSEDSAVYYCARERDTRFGNWGQGTLVTVSA VL: NIVLTQSPASLAVSLGLRATISCRASESVDIYGNSFMHWYQQKPGQPPKLLIYLASNLESGVPARFSGSGSRTDFTLTIDPVEADDAATYYCQQNNEDPYTFGGGTKLEIKR",3.6,,,,
"Humanized SR-1 aglycosylated IgG1 (hSR-1 aIgG1) (antibody, also called Humanized SR-1 aIgG1; Humanized SR-1 aglyco-IgG1) heavy: not shown light: DIVMTQSPDSLAVSLGERATINCRASESVDIYGNSFMHWYQQKPGQPPKLLIYLASNLESGVPDRFSGSGSGTDFTLTISSLQAEDVAVYYCQQNNEDPYTFGGGTKVEIKRTVAAPSVFIFPPSDEQLKSGTASVVCLLNNFYPREAKVQWKVDNALQSGNSQESVTEQDSKDSTYSLSSTLTLSKADYEKHKVYACEVTHQGLSSPVTKSFNRGEC",4.5,70,1,no binding,35
